The results in this text go back to IntAct's records for PubMed 17721515.

B1: Focal adhesion kinase 1 (Gallus gallus (Chicken)), Q00944 (parent)
chain: MAAAYLDPNLNHTPSSSAKTHLGTGMERSPGAMERVLKVFHYFENSSEPTTWASIIRHGDATDVRGIIQKIVDCHKVKNVACYGLRLSHLQSEEVHWLHLDMGVSNVREKFELAHPPEEWKYELRIRYLPKGFLNQFTEDKPTLNFFYQQVKNDYMLEIADQVDQEIALKLGCLEIRRSYGEMRGNALEKKSNYEVLEKDVGLRRFFPKSLLDSVKAKTLRKLIQQTFRQFANLNREESILKFFEILSPVYRFDKECFKCALGSSWIISVELAIGPEEGISYLTDKGANPTHLADFNQVQTIQYSNSEDKDRKGMLQLKIAGAPEPLTVTAPSLTIAENMADLIDGYCRLVNGATQSFIIRPQKEGERALPSIPKLANNEKQGVRSHTVSVSETDDYAEIIDEEDTYTMPSTRDYEIQRERIELGRCIGEGQFGDVHQGIYMSPENPAMAVAIKTCKNCTSDSVREKFLQEALTMRQFDHPHIVKLIGVITENPVWIIMELCTLGELRSFLQVRKFSLDLASLILYAYQLSTALAYLESKRFVHRDIAARNVLVSATDCVKLGDFGLSRYMEDSTYYKASKGKLPIKWMAPESINFRRFTSASDVWMFGVCMWEILMHGVKPFQGVKNNDVIGRIENGERLPMPPNCPPTLYSLMTKCWAYDPSRRPRFTELKAQLSTILEEEKLQQEERMRMESRRQVTVSWDSGGSDEAPPKPSRPGYPSPRSSEGFYPSPQHMVQPNHYQVSGYSGSHGIPAMAGSIYPGQASLLDQTDSWNHRPQEVSAWQPNMEDSGTLDVRGMGQVLPTHLMEERLIRQQQEMEEDQRWLEKEERFLVMKPDVRLSRGSIEREDGGLQGPAGNQHIYQPVGKPDHAAPPKKPPRPGAPHLGSLASLNSPVDSYNEGVKIKPQEISPPPTANLDRSNDKVYENVTGLVKAVIEMSSKIQPAPPEEYVPMVKEVGLALRTLLATVDESLPVLPASTHREIEMAQKLLNSDLAELINKMKLAQQYVMTSLQQEYKKQMLTAAHALAVDAKNLLDVIDQARLKMISQSRPH

This assay covers variants of B1. The conditions noted are these: with arp3_bovin ACTR3, P61157.
Turning to Y397F, the “effect of a mutation on the interaction” value was “increasing interaction”.
